{"source": "patent US8536129B2", "about": "“Treatment for anxiety” (NoNO Inc., priority 2007, dated 2013)", "origin": "cited, not measured here", "target": "N-type calcium channels (Homo sapiens, UniProt Q00975)", "sequence (Q00975 whole entry)": "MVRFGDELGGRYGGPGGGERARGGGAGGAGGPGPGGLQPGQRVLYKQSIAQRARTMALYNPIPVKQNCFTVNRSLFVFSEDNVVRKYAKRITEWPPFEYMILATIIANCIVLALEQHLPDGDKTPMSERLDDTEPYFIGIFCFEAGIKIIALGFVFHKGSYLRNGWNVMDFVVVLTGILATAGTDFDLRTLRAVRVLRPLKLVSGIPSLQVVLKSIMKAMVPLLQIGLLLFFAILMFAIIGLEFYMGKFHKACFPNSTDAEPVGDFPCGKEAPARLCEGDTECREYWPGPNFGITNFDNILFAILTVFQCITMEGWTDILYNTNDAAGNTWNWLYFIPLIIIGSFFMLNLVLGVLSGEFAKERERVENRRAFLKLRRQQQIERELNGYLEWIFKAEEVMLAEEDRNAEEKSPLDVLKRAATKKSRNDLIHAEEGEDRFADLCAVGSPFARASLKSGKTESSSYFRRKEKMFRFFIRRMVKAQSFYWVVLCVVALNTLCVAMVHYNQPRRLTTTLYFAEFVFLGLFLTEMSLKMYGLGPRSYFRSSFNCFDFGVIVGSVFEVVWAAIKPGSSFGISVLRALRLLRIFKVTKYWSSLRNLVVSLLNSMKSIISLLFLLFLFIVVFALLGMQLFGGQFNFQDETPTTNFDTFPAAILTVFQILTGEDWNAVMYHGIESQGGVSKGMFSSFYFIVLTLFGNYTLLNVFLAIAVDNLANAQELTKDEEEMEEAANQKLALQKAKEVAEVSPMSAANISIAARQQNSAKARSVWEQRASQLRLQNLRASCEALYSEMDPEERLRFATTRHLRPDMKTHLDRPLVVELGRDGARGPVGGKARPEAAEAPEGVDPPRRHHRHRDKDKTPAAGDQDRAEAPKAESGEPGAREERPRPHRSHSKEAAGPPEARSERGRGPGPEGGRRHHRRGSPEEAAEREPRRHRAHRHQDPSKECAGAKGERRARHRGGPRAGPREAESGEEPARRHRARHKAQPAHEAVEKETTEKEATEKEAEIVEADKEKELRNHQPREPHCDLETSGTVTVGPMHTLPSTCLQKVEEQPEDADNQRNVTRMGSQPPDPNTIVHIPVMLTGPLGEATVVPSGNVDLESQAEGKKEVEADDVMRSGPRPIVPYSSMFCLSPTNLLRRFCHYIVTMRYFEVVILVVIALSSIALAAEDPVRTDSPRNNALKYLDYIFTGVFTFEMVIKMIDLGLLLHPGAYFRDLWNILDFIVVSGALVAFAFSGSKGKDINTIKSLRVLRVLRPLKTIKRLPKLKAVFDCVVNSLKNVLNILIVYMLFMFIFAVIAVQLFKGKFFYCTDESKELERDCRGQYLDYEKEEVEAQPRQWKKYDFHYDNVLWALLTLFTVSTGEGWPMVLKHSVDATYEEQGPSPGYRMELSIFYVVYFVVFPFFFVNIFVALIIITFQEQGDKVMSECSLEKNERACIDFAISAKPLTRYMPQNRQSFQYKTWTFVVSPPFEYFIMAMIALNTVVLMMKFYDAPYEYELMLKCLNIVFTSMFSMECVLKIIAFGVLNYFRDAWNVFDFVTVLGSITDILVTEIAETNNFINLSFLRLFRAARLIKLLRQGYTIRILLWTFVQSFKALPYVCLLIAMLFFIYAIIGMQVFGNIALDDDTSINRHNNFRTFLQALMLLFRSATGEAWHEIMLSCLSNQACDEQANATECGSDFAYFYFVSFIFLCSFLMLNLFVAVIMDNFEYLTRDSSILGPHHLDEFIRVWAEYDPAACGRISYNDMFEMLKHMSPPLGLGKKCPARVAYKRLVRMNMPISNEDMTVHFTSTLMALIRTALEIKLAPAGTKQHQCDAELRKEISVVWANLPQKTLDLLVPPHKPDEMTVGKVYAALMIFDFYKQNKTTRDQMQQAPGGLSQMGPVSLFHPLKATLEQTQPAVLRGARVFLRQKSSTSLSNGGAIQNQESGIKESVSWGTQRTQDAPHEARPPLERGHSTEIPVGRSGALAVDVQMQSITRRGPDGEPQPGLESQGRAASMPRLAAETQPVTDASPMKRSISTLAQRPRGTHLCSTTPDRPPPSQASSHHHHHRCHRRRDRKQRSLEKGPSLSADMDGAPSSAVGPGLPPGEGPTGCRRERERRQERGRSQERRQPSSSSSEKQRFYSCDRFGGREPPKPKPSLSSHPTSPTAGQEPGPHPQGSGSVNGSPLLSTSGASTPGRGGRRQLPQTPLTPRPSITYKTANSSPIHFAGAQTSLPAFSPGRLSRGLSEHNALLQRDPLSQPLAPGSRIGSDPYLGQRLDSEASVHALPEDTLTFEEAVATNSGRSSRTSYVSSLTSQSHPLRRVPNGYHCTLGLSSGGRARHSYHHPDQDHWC", "details": "reported in co-pending application 60/904,507"}
{"sequence": "YGRKKRRQRRR [standard tat peptide]", "values": [{"measurement": "binding to and inhibition of N-type calcium channels", "result": "binds to and inhibits N-type calcium channels"}]}
